How the values were obtained:
[1] = target: the molecule itself; assay: AUC; sedimentation velocity, 42,000 rpm, 20°C, absorbance at 280 nm, analysed with SEDFIT
[2] = target: the molecule itself; assay: crystal structure; microbatch under oil at 22°C; space group P4(3)2(1)2, two monomers in the asymmetric unit

Protein	stoichiometry N [1]	binding result [2]
TON_1525 ('eighth note' fold regulator, EnfR), wild-type (natural protein, Thermococcus onnurineus NA1, UniProt B6YTS4 1-146, looked up, Synthetic gene in pET24a(+) with an in-frame non-cleavable C-terminal His6-tag; also called WT; wild-type EnfR; source: E. coli Rosetta (DE3), purified (75°C heat step, Ni-NTA, Superdex 75); not shown: His6, C-terminal, kept) MGSKSFLTEQQIKILRLRARGLKQSEIAELLGTSRANISILERRALEKIEKARNTITIWEQINSKISVEVRKGEDIFTVPDKLFKKADELQIKVPYSTAEIIAFLVEHAPISDRIAKRDFTLFLDARDRLRISECLLEEFDEIGKQ	2	
EnfR R44A mutant (natural protein, Thermococcus onnurineus NA1, UniProt B6YTS4 1-146, looked up, TON_1525 (EnfR) of Thermococcus onnurineus NA1, residues 1-146, with R44A; source: E. coli, purified by the same procedure as the wild-type; not shown: His6, C-terminal, kept) MGSKSFLTEQQIKILRLRARGLKQSEIAELLGTSRANISILERAALEKIEKARNTITIWEQINSKISVEVRKGEDIFTVPDKLFKKADELQIKVPYSTAEIIAFLVEHAPISDRIAKRDFTLFLDARDRLRISECLLEEFDEIGKQ	2	
EnfR R35A mutant (natural protein, Thermococcus onnurineus NA1, UniProt B6YTS4 1-146, looked up, TON_1525 (EnfR) of Thermococcus onnurineus NA1, residues 1-146, with R35A; source: E. coli, purified by the same procedure as the wild-type; not shown: His6, C-terminal, kept) MGSKSFLTEQQIKILRLRARGLKQSEIAELLGTSAANISILERRALEKIEKARNTITIWEQINSKISVEVRKGEDIFTVPDKLFKKADELQIKVPYSTAEIIAFLVEHAPISDRIAKRDFTLFLDARDRLRISECLLEEFDEIGKQ	2	
EnfR R43A mutant (natural protein, Thermococcus onnurineus NA1, UniProt B6YTS4 1-146, looked up, TON_1525 (EnfR) of Thermococcus onnurineus NA1, residues 1-146, with R43A; source: E. coli, purified by the same procedure as the wild-type; not shown: His6, C-terminal, kept) MGSKSFLTEQQIKILRLRARGLKQSEIAELLGTSRANISILEARALEKIEKARNTITIWEQINSKISVEVRKGEDIFTVPDKLFKKADELQIKVPYSTAEIIAFLVEHAPISDRIAKRDFTLFLDARDRLRISECLLEEFDEIGKQ	2	
EnfR (TON_1525) T55I mutant (natural protein, Thermococcus onnurineus NA1, UniProt B6YTS4 1-146, looked up, TON_1525 (EnfR) of Thermococcus onnurineus NA1, residues 1-146, with T55I; The T55I change first arose in an adaptive laboratory evolution (strain 156T / MC11); here made by site-directed mutagenesis; source: E. coli Rosetta (DE3), purified (75°C heat step, Ni-NTA, Superdex 75); not shown: His6, C-terminal, kept) MGSKSFLTEQQIKILRLRARGLKQSEIAELLGTSRANISILERRALEKIEKARNIITIWEQINSKISVEVRKGEDIFTVPDKLFKKADELQIKVPYSTAEIIAFLVEHAPISDRIAKRDFTLFLDARDRLRISECLLEEFDEIGKQ		binds
EnfR mutant with N-terminal six residues deleted (ΔN^1–6) (domain or fragment, Thermococcus onnurineus NA1, UniProt B6YTS4 7-146, looked up, TON_1525 (EnfR) of Thermococcus onnurineus NA1, residues 1-146 without the N-terminal six residues (N-6 region, residues 1-6); The limits 7-146 follow from the printed deletion of residues 1-6 of the 1-146 construct; also called mutant with the N-6 region deleted; source: E. coli, purified by the same procedure as the wild-type; not shown: His6, C-terminal, kept) LTEQQIKILRLRARGLKQSEIAELLGTSRANISILERRALEKIEKARNTITIWEQINSKISVEVRKGEDIFTVPDKLFKKADELQIKVPYSTAEIIAFLVEHAPISDRIAKRDFTLFLDARDRLRISECLLEEFDEIGKQ	2	
